Test results reported in US20180346554A1 (University of Pennsylvania, published 2018).

What was measured:
Assay in all cases: cell-based or functional assay
[1] = target: Env of the HIV-1 pseudotyped virus Bal26 (clade B, Tier 1) (HIV-1 (clade B, Bal26))
[2] = target: Env of the HIV-1 pseudotyped virus Q23Env17 (clade A, Tier 1) (HIV-1 (clade A, Q23Env17))
[3] = target: Env of the HIV-1 pseudotyped virus SF162S (clade B, Tier 1) (HIV-1 (clade B, SF162S))

B1: HIV-1 Env-Fab (Fab generated from the VRC01 antibody by pHIV-1 Env Fab) (Fab, V domains shown)
VH: QVQLVQSGGQMKKPGESMRISCRASGYEFIDCTLNWIRLAPGKRPEWMGWLKPRGGAVNYARPLQGRVTMTRDVYSDTAFLELRSLTVDDTAVYFCTRGKNCDYNWDFEHWGRGTPVIVSS
VL: QIVLTQSPGTLSLSPGETAIISCRTSQYGSLAWYQQRPGQAPRLVIYSGSTRAAGIPDRFSGSRWGPDYNLTISNLESGDFGVYYCQQYEFFGQGTKVQVDI
- plateau percent neutralization (TZM-Bl luciferase assay, serum 1:50) [1]: ~62%
- plateau percent neutralization (TZM-Bl luciferase assay, serum 1:50) [2]: ~60%
- plateau percent neutralization (TZM-Bl luciferase assay, serum 1:50) [3]: ~70%
